Experiments:
[1] = biological target: T1, endogenous murine tau (mouse brain and ISF) (mouse, UniProt P10637-2 1-430, limits assumed); assay: immunoblot of RAB soluble brain fractions of KO, WT and P301S mice
T1 construct: Mixture of isoforms from tissue; also called mouse tau (Western blot, immunostaining, ISF immunoprecipitation)

[2] = biological target: recombinant mouse tau, longest isoform mTau40 (432 aa) (mouse, UniProt P10637-2 1-430, limits assumed); assay: SPR (Biacore), mouse tau immobilised, antibody injected
Chain of recombinant mouse tau, longest isoform mTau40 (432 aa) (P10637 other isoform, or with tags, fused parts or gaps limits assumed): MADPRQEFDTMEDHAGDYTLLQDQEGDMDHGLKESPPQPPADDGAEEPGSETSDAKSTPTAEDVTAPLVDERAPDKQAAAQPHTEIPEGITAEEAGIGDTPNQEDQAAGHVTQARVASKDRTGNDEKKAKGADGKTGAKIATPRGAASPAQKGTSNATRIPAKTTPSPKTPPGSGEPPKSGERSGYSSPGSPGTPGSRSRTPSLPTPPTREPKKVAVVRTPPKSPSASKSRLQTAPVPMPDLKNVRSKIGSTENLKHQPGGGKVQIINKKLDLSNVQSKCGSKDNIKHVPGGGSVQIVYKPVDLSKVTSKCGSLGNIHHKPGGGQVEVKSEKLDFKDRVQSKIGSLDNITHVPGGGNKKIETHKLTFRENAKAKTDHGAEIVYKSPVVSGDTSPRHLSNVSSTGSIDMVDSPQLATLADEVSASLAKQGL
Protocol: FIGS. 30A, 30B, 30C, 30D, 30E, 30F and 30G. Characterization of anti-tau antibodies by surface plasmon resonance (SPR) and Immunoblotting. The figure depicts SPR sensorgrams showing the binding of each anti-tau antibody towards immobilized recombinant human tau (longest isoforms hTau40, 441 aa) and immobilized mouse tau (longest isoforms mTau40, 432 aa). Each antibody was run with various concentrations (0.11, 0.23, 0.46, 0.90, […], 3.7, 7.5 μg/ml) and plots are shown in the corresponding color. (FIG. 30A) SPR sensorgrams of HJ9.3 antibody binding to immobilized human tau and immobilized mouse tau (FIG. 30B). (FIG. 30C) SPR sensorgrams of HJ9.4 antibody binding to immobilized human tau and immobilized mouse tau (FIG. 30D). SPR sensorgrams of HJ8.5 antibody binding to immobilized (FIG. 30E) human and (FIG. 30F) mouse tau. (FIG. 30G) RAB soluble fractions of 3 month old tau knockout (KO), 3 month old wild-type (WT), 3 month old P301 S (3 mo) and 9 month old P301 S (9 mo) mice were analyzed by immunoblot by using the indicated anti-tau antibodies.
Surface plasmon resonance Surface plasmon resonance experiments were performed on BIAcore 2000 surface plasmon resonance instrument (GE Healthcare-BIAcore). Biacore sensor chip CM-5 was activated by using EDC (1-ethyl-3-(3-dimethylaminopropyl)-carbodiimide) and NHS (N-hydroxysuccinimide) in a 1:1 ratio for 7 minutes. […]

[3] = biological target: T2, recombinant human tau, longest isoform hTau40 (441 aa) (human, UniProt P10636-8 1-441); assay: SPR (BIAcore 2000), tau immobilised on CM-5 chip, antibody injected 0.11-7.5 µg/ml, 1:1 Langmuir global fit
T2 construct: range 1-441
T2 sequence (P10636 other isoform, or with tags, fused parts or gaps limits assumed): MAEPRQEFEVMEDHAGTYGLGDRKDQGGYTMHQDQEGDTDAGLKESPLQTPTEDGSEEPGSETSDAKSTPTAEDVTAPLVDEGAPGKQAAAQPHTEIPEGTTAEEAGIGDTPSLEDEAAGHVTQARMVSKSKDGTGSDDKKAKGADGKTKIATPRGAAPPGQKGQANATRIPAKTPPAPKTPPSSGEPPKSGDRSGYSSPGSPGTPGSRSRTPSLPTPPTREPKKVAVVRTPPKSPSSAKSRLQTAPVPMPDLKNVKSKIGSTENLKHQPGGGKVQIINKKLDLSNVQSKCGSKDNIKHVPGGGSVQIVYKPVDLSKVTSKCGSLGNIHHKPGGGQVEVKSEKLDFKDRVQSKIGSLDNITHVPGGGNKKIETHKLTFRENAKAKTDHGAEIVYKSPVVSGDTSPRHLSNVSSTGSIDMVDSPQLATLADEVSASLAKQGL
Protocol: Prior to testing in vivo, the binding affinities and epitopes of the antibodies, which are all lgG2b isotype, were determined. Human and mouse tau was immobilized on a sensor chip CMS for surface plasmon resonance (SPR) (FIGS. 30A-30G). […] The association (Kₐ) and dissociation (Kd) was calculated by using BIAevaluation software (Biacore AB) selecting Fit kinetics simultaneous Kd/Kₐ (Global fitting) with 1:1 (Langmuir) interaction model. […] The epitope of HJ9.3 was mapped to the repeat domain (RD) region, between amino acids 306-320. […] It binds to human tau (FIG. 30E) but not to mouse tau (FIG. 30F). […] The epitope of HJ8.5 was mapped to amino acids 25-30. All 3 anti-tau antibodies strongly recognized human tau fibrils on SPR (FIG. 31). Because the fibrils have multiple identical epitopes, the association and dissociation rates could not be directly calculate.
Surface plasmon resonance Surface plasmon resonance experiments were performed on BIAcore 2000 surface plasmon resonance instrument (GE Healthcare-BIAcore). Biacore sensor chip CM-5 was activated by using EDC (1-ethyl-3-(3-dimethylaminopropyl)-carbodiimide) and NHS (N-hydroxysuccinimide) in a 1:1 ratio for 7 minutes.

[4] = biological target: T2, recombinant human tau, longest isoform …; assay: SPR (Biacore), tau immobilised on CM-5 chip, antibody injected 0.78-400 nM
Protocol: To characterize the binding affinity of the HJ8 and HJ9 series antibodies to mouse tau and human tau, Biacore's SPR technology was used. Biacore sensor chip CM-5 (Carboxymethylated dextran matrix) was activated by using EDC (1-ethyl-3-(3-dimethylaminopropyl)-carbodiimid) and NHS (N-hydroxysuccinimide) in 1:1 ratio. 2). Then ligand, either mouse tau or human Tau, were immobilized (20 ug/ml, in 10 mM sodium acetate pH 3.5) on Biacore CM-5 sensor chip at a flow rate of 5 μI/min. The remaining unbound area on the Biacore CM-5 sensor chip was deactivated by passage of 1 M ethanolamine pH 8.5.
Following preparation of the sensor chip surface, analytes (e.g. antibody) were injected with different concentrations (0.78 nM-400 nM) in filtered, degassed 0.01 M Hepes buffer, 0.15 M NaCl, 0.005% surfactant P20, pH 7.4 at a flow rate of 10 μI/min. All the samples were run in duplicates. After each cycle/run with single antibody concentration, the surface of the chip was regenerated by using 10 mM glycine pH 1.7, to remove the bound antibody/analyte, leaving the monomer/fibrils/ligand attached to the surface.

T1 sequence (P10637 other isoform, or with tags, fused parts or gaps limits assumed): as the sequence (P10637 other isoform, or with tags, fused parts or gaps limits assumed) above

- binding result [1]: no binding
- binding result [2]: no binding (tested: 7.5 µg/ml)
- Kd [3]: 0.336 pM
- koff [3]: 4.34e-08 s⁻¹
- kon [3]: 130000 M⁻¹ s⁻¹
- Kd [4]: 0.336 pM
- koff [4]: 4.34e-08 s⁻¹
- kon [4]: 130000 M⁻¹ s⁻¹
B1: HJ8.5 (antibody, V domains shown)
VH: EVKVEESGGGLVQPGGSMKLSCVVSGFTFSNYWVNWVRQSPEKGLEWVAQIRLKSDNYATHYEESVKGRFTISRDDSKSSVYLQMNNLRAEDSGIYYCTNWEDYWGQGTTLTVSS
VL: DIVLTQSPASLAVSLGQRATISCRASQSVSTSRYSYIHWYQQKPGQPPKLLIKYASNLESGVPARFSGSGSGTDFTLNIHPLEEEDAATYYCHHSWEIPLTFGAGTKLELK
notes: also called HJ8.5B (biotinylated)
